Assay [1] has as its target T1, human CD47, endogenous cell surface form (human, UniProt Q08722 19-323).
T1 construct: Endogenous CD47 on human tumor cell lines; also called cell surface CD47; CD47 on Raji, CCRF-CEM and Daudi cells
Described as described in Examples 2 and 3. An excerpt: Exemplary murine CD47 antibodies disclosed here are shown in FIG. 2, as disclosed in U.S. patent application Ser. No. 13/960,136 (Publication No. US20140140989).

Assay [2] concerns the target T1, human CD47, endogenous cell surface form. The experiment in a line: cell-based or functional assay.

The values that follow come from US20210371522A1 (CELGENE, published 2021).

B1: murine 9E4 antibody (antibody, mouse IgG1, V domains shown)
VH: EVQLRQSGPELVKPGASVKISCKASGYSFTDYYMYWVKQSRVRSLAWIGRINPYTGATGYDQNFKDKASLIVDKSSSTAYMELRSLTSEDSAVYYCARGRNRYDGWFAYWGQGTLVTV
VL: EIQMTQTTSSLSASLGDRVTISCRASQDISNYLNWYQQKPDGTVKLLIYYTSRLHSGVPSRFSGSGSGTDYSLTISNLDQEDIATYFCQQGNALPPTFGGGTNLEIK
With B1, the binding result in assay [1] is given as “binds”.

B2: CD47 antibody B6H12 (antibody, from another filing, V domains shown)
VH: EVQLVESGGDLVKPGGSLKLSCAASGFTFSGYGMSWVRQTPDKRLEWVATITSGGTYTYYPDSVKGRFTISRDNAKNTLYLQIDSLKSEDTAIYFCARSLAGNAMDYWGQGTSVTVSS
VL: DIVMTQSPATLSVTPGDRVSLSCRASQTISDYLHWYQQKSHESPRLLIKFASQSISGIPSRFSGSGSGSDFTLSINSVEPEDVGVYYCQNGHGFPRTFGGGTKLEIK
Consider B2, for which the phagocytosis of tumor cells (CFSE-labeled CCRF-CEM) by monocyte derived macrophages in assay [2] was 66.7 pM.
